Data: patent publication US12077763B2, “RNA-based control of powdery mildew” (Greenlight Biosciences, Inc., priority 2021, dated 2024)

Tested on: E. necator
Experiment: Leaf disc assay, dry inoculum (settling tower), decrease in disease severity / hyphal growth (Example 2)
Settings: decrease in disease severity (hyphal growth) relative to untreated control, value ± SE; for % decrease =/− SE TP1: time point 1 (untreated control hyphal growth ≥50%); for % decrease =/− SE TP2: time point 2

B1: GS3295 (nucleic acid)
sense: UCAUCUUUUGCCGCUCUUUAUCAUGAUCUUGAUAUGGGAUUUACACCGAUCAACUUUACAUUUUACUGGGCACCUCUACCUUGGAAUCGUGCUCGUGAUCAUGCCCAAAGAACUGUUGCUAGGACGAACCUCGCUCCAAGGGGGCUUUAUGGGAAUCUGCCUCGUAGUAUAAAGUUCUGCAGCUGGCUCUACGGAUUGCAUCUACAACAACUACAACAUCAUCAUCAUCAUCAUCUUCAUCUUCAUCUUC
antisense: GAAGAUGAAGAUGAAGAUGAUGAUGAUGAUGAUGUUGUAGUUGUUGUAGAUGCAAUCCGUAGAGCCAGCUGCAGAACUUUAUACUACGAGGCAGAUUCCCAUAAAGCCCCCUUGGAGCGAGGUUCGUCCUAGCAACAGUUCUUUGGGCAUGAUCACGAGCACGAUUCCAAGGUAGAGGUGCCCAGUAAAAUGUAAAGUUGAUCGGUGUAAAUCCCAUAUCAAGAUCAUGAUAAAGAGCGGCAAAAGAUGA
With B1 the “% decrease =/− SE TP1” value was 33 ± 6% and the “% decrease =/− SE TP2” value was 26 ± 8%.

B2: GS2732 (nucleic acid)
sense: GGAAAAUGUGAGUUGCCGCCAUCGAUAAUUAUGUCUCCUUGAUCGAGGAAUGGCAAUAAUGUUUCAAUAAAAUCAUCAACAGGCUUUCCAGCCAUGACAAGCAGCAUAAUACGACGUGGUUUUUUUAGUUUACUCACAAAUUCCUGGAUAGAACGAGCACCUUCAAUAGAUUUCCCUUUUGCCUCAUUUUCAAGAAAGUGGUCUACCUUAGCUACAGUUCGAUUAUAUGCAAUAACAUUAAAUCCAUGGUCUGCAGCAUUCAGAAUUAGAUUCUGCCCCAUGACAGCUAGACCGAUAAGGCCAAAGUCUCCUGUAGCAGCACUCAUAUUUUUUUGAUUAUAAAUUUAGAAGCCCAAAGACUGGAGCUUAUAUGGAGAACAGAGAUUACACAGAUGGGA
antisense: UCCCAUCUGUGUAAUCUCUGUUCUCCAUAUAAGCUCCAGUCUUUGGGCUUCUAAAUUUAUAAUCAAAAAAAUAUGAGUGCUGCUACAGGAGACUUUGGCCUUAUCGGUCUAGCUGUCAUGGGGCAGAAUCUAAUUCUGAAUGCUGCAGACCAUGGAUUUAAUGUUAUUGCAUAUAAUCGAACUGUAGCUAAGGUAGACCACUUUCUUGAAAAUGAGGCAAAAGGGAAAUCUAUUGAAGGUGCUCGUUCUAUCCAGGAAUUUGUGAGUAAACUAAAAAAACCACGUCGUAUUAUGCUGCUUGUCAUGGCUGGAAAGCCUGUUGAUGAUUUUAUUGAAACAUUAUUGCCAUUCCUCGAUCAAGGAGACAUAAUUAUCGAUGGCGGCAACUCACAUUUUCC
In the case of B2, the “% decrease =/− SE TP2” value is reported as 18 ± 10%.

B3: GS2804 (nucleic acid)
sense: UUUUAAAGCUAUGUAUCCUCAAGUAACAGAAUUAGAAAACCUAGUUUUCAAAUUGAGAUUUUGGAAAAAAUCUAACAACCACUUCACUUGGCUCCAUCAAUUUUGGAAAUAUAACUUAGGAGAUCUAAAACACGGCGAGAGUAACCCCAUUCAUUAUCAUACCAUGAUACGAGUUUGACAAAGUUGUCAUUGAGCGAGAUUCCAGCUUUCGCGUCGAAAAUGGAUGAGUGAUUAUCACCGAUUAAAUCAGUUGAAACGAUGUCAUCCUCAGUAUAAGAAAGUAUGCCUUUUAAUUCACCAUUGGCAGCCUCCUUGAUAGCAGCCUUAAUUUGGUCAUAAGUAGCACCCUUUCCAAUGCGGCAUGUUAAGUCAACAACGGAAACAUUAGCAGUGGGUA
antisense: UACCCACUGCUAAUGUUUCCGUUGUUGACUUAACAUGCCGCAUUGGAAAGGGUGCUACUUAUGACCAAAUUAAGGCUGCUAUCAAGGAGGCUGCCAAUGGUGAAUUAAAAGGCAUACUUUCUUAUACUGAGGAUGACAUCGUUUCAACUGAUUUAAUCGGUGAUAAUCACUCAUCCAUUUUCGACGCGAAAGCUGGAAUCUCGCUCAAUGACAACUUUGUCAAACUCGUAUCAUGGUAUGAUAAUGAAUGGGGUUACUCUCGCCGUGUUUUAGAUCUCCUAAGUUAUAUUUCCAAAAUUGAUGGAGCCAAGUGAAGUGGUUGUUAGAUUUUUUCCAAAAUCUCAAUUUGAAAACUAGGUUUUCUAAUUCUGUUACUUGAGGAUACAUAGCUUUAAAA
With B3 the “% decrease =/− SE TP1” value was 32 ± 5% and the “% decrease =/− SE TP2” value was 10 ± 8%.

B4: GS2685 (nucleic acid)
sense: GUCUCAUAUCACGAACAGCGAAGCGACCUAAUGGAGGAUAACUUGAAAAUGACUCAACACACAUAGGUUUAGAUGGAAUCAUUUUAACAAUUGCUGCGUCACCAGAUUUAACAAAUUUUGGAGUUGCCUCAAUAGACUUUCCAGUACGACGAUCAAUUUUUUCAAGAAGUUCUGCAAAUUUGCAAGCAAUGUGAGCCGUAUGACAAUCAAGUACAGGUGCGUAACCAGCUCCAAUUUGACCUGGGUGGUUUAACACGAUAACUUGUGCGGUAAAAUGCUCGGCACCCUUAGGGGGGUCAUUCUUAGAAUCACCACAAACAUUACCACGACGGAUUUCUUUCACCGAAACGUUCUUUACAUUGAAGCCAA
antisense: UUGGCUUCAAUGUAAAGAACGUUUCGGUGAAAGAAAUCCGUCGUGGUAAUGUUUGUGGUGAUUCUAAGAAUGACCCCCCUAAGGGUGCCGAGCAUUUUACCGCACAAGUUAUCGUGUUAAACCACCCAGGUCAAAUUGGAGCUGGUUACGCACCUGUACUUGAUUGUCAUACGGCUCACAUUGCUUGCAAAUUUGCAGAACUUCUUGAAAAAAUUGAUCGUCGUACUGGAAAGUCUAUUGAGGCAACUCCAAAAUUUGUUAAAUCUGGUGACGCAGCAAUUGUUAAAAUGAUUCCAUCUAAACCUAUGUGUGUUGAGUCAUUUUCAAGUUAUCCUCCAUUAGGUCGCUUCGCUGUUCGUGAUAUGAGAC
With B4 the “% decrease =/− SE TP1” value was 23 ± 0% and the “% decrease =/− SE TP2” value was 15 ± 0%.

B5: GS2799 (nucleic acid)
sense: UAGCAACGGGACGUCCACUUUGUACUCUUACAGCUUCACGUGUAUUAUCAAUCACUGAUUGAUGGUACUCAUGAGAGCCAUGAGAAAAAUUCAUACGGACAACAUUCAGACCAGCUCUUCGAAGUCCAUUUAAGGCCUCGACAUUGUUAGUUUUGGGGCCAAUAGUACAGAUAAUCGAGGUUCGACGAUAAUUCUUAGAGGUGGCAUACUCAGUGUCAAGUUGUGAUAGCCAUUCAAUGCGAGUAGAGCUGGUUAGGUGAUUCAUAGCUGAAACCAUAUUUUGAUCUAAUGAGAACUUUUAUUUGAUGUGAACGUAAAUAGUUGAGGAUGUGUAAAGUUGAGGAGAGAGUUGGCCAAAGAUACUCUUUGAGGGUAGCAAAUUUCGUUUAUCUUAUUAU
antisense: AUAAUAAGAUAAACGAAAUUUGCUACCCUCAAAGAGUAUCUUUGGCCAACUCUCUCCUCAACUUUACACAUCCUCAACUAUUUACGUUCACAUCAAAUAAAAGUUCUCAUUAGAUCAAAAUAUGGUUUCAGCUAUGAAUCACCUAACCAGCUCUACUCGCAUUGAAUGGCUAUCACAACUUGACACUGAGUAUGCCACCUCUAAGAAUUAUCGUCGAACCUCGAUUAUCUGUACUAUUGGCCCCAAAACUAACAAUGUCGAGGCCUUAAAUGGACUUCGAAGAGCUGGUCUGAAUGUUGUCCGUAUGAAUUUUUCUCAUGGCUCUCAUGAGUACCAUCAAUCAGUGAUUGAUAAUACACGUGAAGCUGUAAGAGUACAAAGUGGACGUCCCGUUGCUA
With B5 the “% decrease =/− SE TP1” value was 31 ± 5% and the “% decrease =/− SE TP2” value was 20 ± 8%.

B6: GS2680 (nucleic acid)
sense: UACUAACAAACUGUCCACCAAAAGUAUAUAUAAUUCCUGCAACUGAGGGAGUAGAUCGCUUGCAAAUAAAAUCAAAAUCUAGCAUUCCUUGAACAGCUCUAGGCUGAAGACCAUAGACGAAACAUCUUGUUUUAUCAUGGAAGAGUGUAUGAGUUGCGUGAGGGCUCAAUGGGCGGCUAGGAGCAGCAAACCGACAGAUGUUAUCAUUGGCUGAUUGCCCAACUUUCGUAGUAUCAUUUGGAGUAGCUGAUGGCAUUUUAAAAUAUUACAAGGUCACAGAGUGUAAUUUUGGGCCUGAUUUCUUCUGUAGAGAUGACUCAAGUAGUAAUAUUUAUCUCUUUCAAUGGUGUAGUAUAUUAAUAGUAUACUCGGGAGAGAAAAUGAUGUGAUAAAAAUUA
antisense: UAAUUUUUAUCACAUCAUUUUCUCUCCCGAGUAUACUAUUAAUAUACUACACCAUUGAAAGAGAUAAAUAUUACUACUUGAGUCAUCUCUACAGAAGAAAUCAGGCCCAAAAUUACACUCUGUGACCUUGUAAUAUUUUAAAAUGCCAUCAGCUACUCCAAAUGAUACUACGAAAGUUGGGCAAUCAGCCAAUGAUAACAUCUGUCGGUUUGCUGCUCCUAGCCGCCCAUUGAGCCCUCACGCAACUCAUACACUCUUCCAUGAUAAAACAAGAUGUUUCGUCUAUGGUCUUCAGCCUAGAGCUGUUCAAGGAAUGCUAGAUUUUGAUUUUAUUUGCAAGCGAUCUACUCCCUCAGUUGCAGGAAUUAUAUAUACUUUUGGUGGACAGUUUGUUAGUA
B6 was tested, and the “% decrease =/− SE TP1” value was 12 ± 4% and the “% decrease =/− SE TP2” value was 11 ± 5%.

B7: ES49: dsRNA trigger SEQ ID NO 112; gene target Hypotethical effector (nucleic acid)
DNA: ATGCGTTTCATCATAGGAGCTGTCGTCTCTTCACTCATTTTGTCGCCAATTTCAGTGCTTTCTATGGCGGCTAGTAATGACTCTACCGAAGCTGCAGCGCATATCATAAATGATTCTATACTAGAAGATGTTTCGAACGTTGCAGATTTCGACTGGTCTTCAACGTCATATCAAGGCCTAGAGAAAAGATTTTGTTTCAGACGAGGATGCAAGGAAGAAAAGCTCAAGAGGACATCAGGTTTCCAATGCAAAAAGAAGTACATCAGCTCGGAGAAAATTGAGAGAGCAAAAGCCGCTGGCTGTCCGGAAATCAAAAAAAATAAGCAGCGATCCGCTTTTCCTTCTCTCTACACTGCATCCGACTTTGCTGTTCCAGGTCCTTACCTAGAATGGCCGATCAGCCGCAATGGAAGGTTTTGGAACAAATTGAGTAAGGGCAAGTACCGTATCATCATGACCAAAAGCTGCAAGGTGG
B7 was tested, and the “% decrease =/− SE TP1” value was 9 ± 1% and the “% decrease =/− SE TP2” value was 6 ± 3%.

B8: GS2684 (nucleic acid)
sense: UUGGCAGCUCGCCAUUUCUUAUCAAAGAGAUACCUAAAUGAUAAACUUAAAAUACUUGCAGUGAAUAUAUCUGCUAGAGUAAGACGCUCUCCAACUAAGAAUGUGUUGUUUUGAAGAGUAUCCUCAAAAAUUUGAGCAUAAUCGAUUGUUUUUUUGACACCUUCAUCAUAAACCUUUUUAUUGUAUGCGACAAUACCAAAAAAAGGAUAAAGCCAGCUGGCAUAGCAGUUACUAAUAUCUUGAUUGACAAAAGACAUCCACUUUAAAAUAGAGGCAUAAGUCUAAUUAUGAAAGUCCACACGGAGUGUUAAGACAGGGACUGUUUUAUGUCAAGGAAAAUUUUUCAACUGAGAGAGCUUAGCAUACUCCUGCUUGGUUUU
antisense: AAAACCAAGCAGGAGUAUGCUAAGCUCUCUCAGUUGAAAAAUUUUCCUUGACAUAAAACAGUCCCUGUCUUAACACUCCGUGUGGACUUUCAUAAUUAGACUUAUGCCUCUAUUUUAAAGUGGAUGUCUUUUGUCAAUCAAGAUAUUAGUAACUGCUAUGCCAGCUGGCUUUAUCCUUUUUUUGGUAUUGUCGCAUACAAUAAAAAGGUUUAUGAUGAAGGUGUCAAAAAAACAAUCGAUUAUGCUCAAAUUUUUGAGGAUACUCUUCAAAACAACACAUUCUUAGUUGGAGAGCGUCUUACUCUAGCAGAUAUAUUCACUGCAAGUAUUUUAAGUUUAUCAUUUAGGUAUCUCUUUGAUAAGAAAUGGCGAGCUGCCAA
With B8 the “% decrease =/− SE TP1” value was 31 ± 4% and the “% decrease =/− SE TP2” value was 18 ± 4%.
